# Test system: reuterin production
# Test: Determination of reuterin formation during growth of L. reuteri ATCC PTA-6475 and its variants
# Assay type: cell-based, Limosilactobacillus reuteri
# Method: FIGS. 5A-5E. Reuterin production of L. reuteri ATCC PTA-6475 and its variants during the growth. Overnight cells were inoculated to reach an initial OD 0.1 in mMRS supplemented with 100 mM glucose and 40 mM glycerol. Supernatant was collected every hour during the growth at 37° C. and the reuterin concentrations were determined. The number of cells of each strain at each time point was normalized to an OD of 3. Data are shown as means±standard deviations for three independent experiments. Statistical significance was determined by unpaired t-test. * P<0.05; **** P<0.0001. In FIGS. 5C and 5D, “orf14” refers to orf14 from L. reuteri. In FIG. 5E, the origins of the orf14 genes (L. mucosae or L. reuteri) are indicated.
# To characterize the reuterin production during growth, strains were cultured at 37° C. anacrobically in deMan-Rogosa-Sharpe medium (MRS; 288110, BD BioSciences) for 18 h, and then bacteria were sub-cultured to reach an initial OD600 of 0.1 in modified MRS (10 g peptone, 10 g beef extract, 5 g yeast extract, 2 g ammonium citrate dibasic, 2 g K2HPO4, 0.1 g MgSO4, 0.05 g MnSO4, and 1.0 g Tween 80 per liter) supplemented with 100 mM glucose. Cultures were incubated anaerobically at 37° C. Strains harboring pSIP411 or its variants were grown in mMRS supplemented with 5 μg/mL erythromycin. Where applicable, induction peptide (10 ng/ml) (MAGNSSNFIHKIKQIFTHR (SEQ ID NO:34)) was added. Samples were collected every hour up to 8 hours. Cell density was monitored using GENESYS 20 visible spectrophotometer (Thermo Scientific) and reuterin production was measured as described in Zhang et al. 2020. Briefly, cell-free supernatants (50 μL) were mixed with 37.5 μL tryptophan (Sigma-Aldrich) in a 96 well plate, followed by an addition of 150 μL 37% HCl (Thermo scientific). After incubating at 37° C. for 20 min, OD560 was measured by GloMax plate reader (Promega). Two-fold dilutions of acrolein (06-722-501, ThermoFisher) were used to generate a standard curve to quantify reuterin (Doleyres et al. 2005). […]
Molecule,"increase in reuterin production compared to that in the wildtype strain (Orf14 overexpressed in L. reuteriΔΦ1ΔΦ2, following 5 h incubation, P<0.05)","reuterin production (growth at 37° C. in mMRS with 100 mM glucose and 40 mM glycerol, supernatant, normalized to OD 3)",higher reuterin production compared to the overexpression of native Orf14 (overexpression in L. reuteri (FIG. 5E))
"Orf14: Limosilactobacillus reuteri Orf14 phage protein (SEQ ID NO:2), overexpressed from pSIP-orf14 (protein, listed as Lactobacillus reuteri) VIYMNKIKRLCKKYQQVIYTLFAVLVIISVVYFALHGFDSFVKWATTDVGSVADWAGSIGTILAFVAVIWQQGRQENITRAVHIEESRPRFSLTYTPKPVLKTRVLFWGNGRTAVNINEILGSRSAENYRFISIENISNNVVYDYSIILKYHSNDNARVRKDYWSSHGLFPRRSVAIVPKFMGTDKDKIGNYIYDELLVKFTTPANEVGFFISKNINNAQTDSSFGKSQYYFVRGSHVKRVTAINTDKMIDVDSSICRKLDKEFDEIIGITSLGEINENGKLS",3 fold,rescued reuterin production,
"Orf14-mucosae: Limosilactobacillus mucosae Orf14 protein (SEQ ID NO:4), natural homolog, codon optimized for expression in L. reuteri (protein, listed as Lactobacillus mucosae) MKRVKELCKKYQQVIYTLLAVVAIVGVVYFALHGFNSFIKWATTDVGSVADWAGSIGTILAFIAVIWQQGRQENITRAVHVEESRPRFSVTYTPKPQAKTKMLFWGNNRTLSQINTMLNNRNGENYRFINIENISNNVVYDYSIILKYHFYDNSLVRKDYWSSHGLFPRRSIIIVPKFLGTGKDKIGNYIYDELLIKFTTPANEIGFFKMTNVNGNRTDSSFGDSQYYFVRGSHIKRVTAINTDEMIKADSPLCRKLDREFSETTGGTNFGAIGEDGKAY",,,2.9 fold
